Holding throughout (settings): both partners purified
The target of assay [1] is T1, DNMT1^2KQ (recombinant, residues 600–1,600) (human, UniProt P26358 600-1600, K1111 to Glutamine | K1113 to Glutamine).
T1 construct: human DNMT1, residues 600-1,600 (DNMT1 if not specified); source: E. coli Rosetta (DE3), purified
The experiment in a line: pull-down; GST–USP7 proteins incubated with DNMT1 proteins 2 h at 4 °C in 25 mM HEPES pH 7.4, 150 mM NaCl, 5% glycerol, 0.05% Triton X-100, 1 mM DTT, then held on glutathione resin; SDS–PAGE, Coomassie.

In assay [2] the target is T2, DNMT1^2KR (recombinant, residues 600–1,600) (human, UniProt P26358 600-1600, K1111 to Arginine | K1113 to Arginine).
T2 construct: human DNMT1, residues 600-1,600 (DNMT1 if not specified); source: E. coli Rosetta (DE3), purified
Described as above.

In assay [3] the target is T3, DNMT1^4KR (recombinant, residues 600–1,600) (human, UniProt P26358 600-1600, K1111 to Arginine | K1113 to Arginine | K1115 to Arginine | K1117 to Arginine).
T3 construct: human DNMT1, residues 600-1,600 (DNMT1 if not specified); source: E. coli Rosetta (DE3), purified
The description is as above.

The target in assay [4] is T4, DNMT1 (residues 600–1,600) (human, UniProt P26358 600-1600).
T4 construct: human DNMT1, residues 600-1,600; Modified pET-28a plasmid; also called WT DNMT1 (residues 600–1,600); source: E. coli Rosetta (DE3), purified (Ni-NTA, on-column cleavage, anion exchange, SEC)
The experiment in a line: ITC; 0.05 mM DNMT1 (600–1,600) titrated with 0.5 mM USP7 (560–1,102); iTC200; 18 °C; 10 mM HEPES pH 8.0, 300 mM NaCl.

The target of assay [5] is T4, DNMT1 (residues 600–1,600). In words: pull-down; GST–USP7 proteins incubated with DNMT1 proteins 2 h at 4 °C in 25 mM HEPES pH 7.4, 150 mM NaCl, 5% glycerol, 0.05% Triton X-100, 1 mM DTT, then held on glutathione resin; SDS–PAGE, Coomassie.

The values that follow come from PMC4432644, “Molecular mechanism for USP7-mediated DNMT1 stabilization by acetylation” (Nature Communications, 2015).

Changes are numbered by the printed parent chain. Numbers in names are those of the source.

T4 sequence (P26358 600-1600): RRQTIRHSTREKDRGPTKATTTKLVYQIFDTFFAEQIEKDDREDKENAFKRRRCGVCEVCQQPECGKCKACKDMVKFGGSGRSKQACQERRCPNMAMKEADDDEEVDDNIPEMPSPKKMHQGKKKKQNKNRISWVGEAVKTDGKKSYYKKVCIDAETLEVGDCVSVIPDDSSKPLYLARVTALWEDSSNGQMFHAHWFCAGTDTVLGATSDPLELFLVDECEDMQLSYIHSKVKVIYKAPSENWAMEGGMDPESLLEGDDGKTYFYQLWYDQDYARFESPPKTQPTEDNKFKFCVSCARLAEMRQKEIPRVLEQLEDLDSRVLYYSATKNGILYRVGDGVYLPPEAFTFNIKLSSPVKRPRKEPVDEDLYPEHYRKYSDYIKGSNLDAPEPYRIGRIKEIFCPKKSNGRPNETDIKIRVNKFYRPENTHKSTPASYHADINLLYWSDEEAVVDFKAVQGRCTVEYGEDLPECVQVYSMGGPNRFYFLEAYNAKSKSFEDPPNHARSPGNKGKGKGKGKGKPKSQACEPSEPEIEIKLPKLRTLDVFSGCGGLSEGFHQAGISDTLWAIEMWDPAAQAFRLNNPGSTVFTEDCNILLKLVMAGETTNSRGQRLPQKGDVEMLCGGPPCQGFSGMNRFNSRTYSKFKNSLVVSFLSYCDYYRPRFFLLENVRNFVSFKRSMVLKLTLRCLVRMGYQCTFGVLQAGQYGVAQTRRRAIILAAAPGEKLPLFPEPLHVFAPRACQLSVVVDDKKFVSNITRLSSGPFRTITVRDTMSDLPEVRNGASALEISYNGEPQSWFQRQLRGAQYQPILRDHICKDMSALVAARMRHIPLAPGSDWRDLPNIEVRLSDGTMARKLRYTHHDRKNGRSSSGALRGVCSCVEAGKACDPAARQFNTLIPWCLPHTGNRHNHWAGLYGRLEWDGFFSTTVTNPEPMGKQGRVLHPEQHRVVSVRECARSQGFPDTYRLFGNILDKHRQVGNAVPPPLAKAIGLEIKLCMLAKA
T1 sequence (P26358 other isoform, or with tags, fused parts or gaps with the stated changes): as the sequence (P26358 600-1600) above, with K512Q, K514Q counted along it
T2 sequence (P26358 other isoform, or with tags, fused parts or gaps with the stated changes): as the sequence (P26358 600-1600) above, with K512R, K514R counted along it
T3 sequence (P26358 other isoform, or with tags, fused parts or gaps with the stated changes): as the sequence (P26358 600-1600) above, with K512R, K514R, K516R, K518R counted along it

B1: GST–TUD^USP7 (tandem UBL domains of USP7, residues 560–1,102) (domain or fragment, human, UniProt Q93009 560-1102, looked up)
chain: EAHLYMQVQIVAEDQFCGHQGNDMYDEEKVKYTVFKVLKNSSLAEFVQSLSQTMGFPQDQIRLWPMQARSNGTKRPAMLDNEADGNKTMIELSDNENPWTIFLETVDPELAASGATLPKFDKDHDVMLFLKMYDPKTRSLNYCGHIYTPISCKIRDLLPVMCDRAGFIQDTSLILYEEVKPNLTERIQDYDVSLDKALDELMDGDIIVFQKDDPENDNSELPTAKEYFRDLYHRVDVIFCDKTIPNDPGFVVTLSNRMNYFQVAKTVAQRLNTDPMLLQFFKSQGYRDGPGNPLRHNYEGTLRDLLQFFKPRQPKKLYYQQLKMKITDFENRRSFKCIWLNSQFREEEITLYPDKHGCVRDLLEECKKAVELGEKASGKLRLLEIVSYKIIGVHQEDELLECLSPATSRTFRIEEIPLDQVDIDKENEMLVTVAHFHKEVFGTFGIPFLLRIHQGEHFREVMKRIQSLLDIQEKEFEKFKFAIVMMGRHQYINEDEYEVNLKDFEPQPGNMSHPRPWLGLDHFNKAPKRSRYTYLEKAIKIHN
notes: Modified pGEX-6P-1 plasmid; also called GST–USP7 (truncation); wild-type GST–TUD^USP7; source: E. coli BL21(DE3), purified
Turning to B1, the binding result in assay [1], in assay [2] and in assay [3] was “binds” each time.

B2: USP7 (residues 560–1,102), tag removed (domain or fragment, human, UniProt Q93009 560-1102, looked up)
chain: B1 chain
notes: The methods name a modified pGEX-6P-1 plasmid but a Ni-NTA purification with on-column cleavage; also called TUD^USP7; source: E. coli BL21(DE3), purified (Ni-NTA, on-column cleavage, anion exchange, SEC)
In assay [4], B2 had a Kd of 600 nM.

B3: GST–TUD^USP7 D762A (domain or fragment, human, UniProt Q93009 560-1102, looked up)
chain: B1 chain with D203A
notes: also called D762A^USP7; source: E. coli BL21(DE3), purified
On to B3, for which the binding result in assay [5] is given as “binds”.

B4: GST–TUD^USP7 E744A (domain or fragment, human, UniProt Q93009 560-1102, looked up)
chain: B1 chain with E185A
notes: also called E744A^USP7; source: E. coli BL21(DE3), purified
As to B4, in assay [5], the binding result is given as “binds”.
